Data reported in the supplement of paper PMC12667976.

B1: library; numbered along this chain (parent)
chain: MATDAALRRLLRLHRTEIAVAVDSAFPLLHALADHDVVPEDKFQETLHLKEKEGCPQAFHALLSWLLTQDSTAILDFWRVLFKDYNLERYGRLQPILDSFPKDVDLSQPRKGRKPPAVPKALVPPPRLPTKRKASEEARAAAPAALTPRGTASPGSQLKAKPPKKPESSAEQQRLPLGNGIQTMSASVQRAVAMSSGDVPGARGAVEGILIQQVFESGGSKKCIQVGGEFYTPSKFEDSGSGKNKARSSSGPKPLVRAKGAQGAAPGGGEARLGQQGSVPAPLALPSDPQLHQKNEDECAVCRDGGELICCDGCPRAFHLACLSPPLREIPSGTWRCSSCLQATVQEVQPRAEEPRPQEPPVETPLPPGLRSAGEEVRGPPGEPLAGMDTTLVYKHLPAPPSAAPLPGLDSSALHPLLCVGPEGQQNLAPGARCGVCGDGTDVLRCTHCAAAFHWRCHFPAGTSRPGTGLRCRSCSGDVTPAPVEGVLAPSPARLAPGPAKDDTASHEPALHRDDLESLLSEHTFDGILQWAIQSMARPAAPFPS

Variants of: B1
Test: AIRE transcriptional activation functional score (insulin promoter-GFP; nonsense median 0, synonymous median 1) (normalised score); higher = higher AIRE activity (more reporter activation)
Conditions: with insulin promoter-GFP reporter in HEK293
Procedure: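 Deep mutational scan of full-length human AIRE (codon-optimized cDNA, DT-POPCode NNN libraries over three regions) integrated at a Bxb1 landing pad in HEK293 cells carrying an insulin core promoter-GFP reporter at a Flp-In site. Cells were sorted for the top 10% GFP about 14 days after transfection. Variant frequency log-ratios (select vs non-select, TileSeq) were rescaled so that the nonsense median is 0 and the synonymous median is 1, then averaged over biological replicates.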

AIRE transcriptional activation functional score, by site and new letter:
T3: M 1.74, W 2.08, P -0.0536, N 0.808, G 0.0107, A 1.09, E -0.211, I -0.128, L 1.26, S 0.972, V 0.465, R 1.18, K 1.31
R8: G -0.0812, H -0.286, T -0.0815, V -0.0144, W -0.126, F -0.127, S 0.281, L -0.0603, D 0.401, E -0.344, Q -1.39, Y -0.316, P -0.196, I 0.433, C 0.131, A -0.421, N -0.26, K 0.485
R9: G 0.856, T 0.253, I 0.0495, H 0.195, P 0.671, M 0.633, Q 1.13, C -0.35, N 1.38, V 0.133, L 0.268, Y 0.868, K -2.37, D 0.539, S 1.39, E -0.057, W 0.515, A 1.09, F -0.124
L7: W 0.0852, T 1.26, Q 0.381, G -0.106, C -1, K -0.0956, S 0.248, A -0.112, M 0.507, D -0.451, I 0.982, N -0.876, P 0.0964, R 0.0717, H 0.927, Y 0.122, F -0.323, V -0.199
A2: V -0.0464, P 1.55, S 1.27, T 0.369, G 0.545, E 1.14
A5: D 0.947, P 0.767, E 1.41, G 0.74, H 0.534, C 1.17, F 0.709, W 0.849, S 1.24, M 0.955, L 1, N 0.61, T 1.04, Y 0.397, Q 0.782, R 1.72, V 1.45, I 1.2
L11: D 0.606, A -0.709, G -0.259, T -0.0406, R 0.101, M 0.0247, Y -0.339, W 0.256, C -0.106, H -0.271, F 0.127, Q 0.602, N 0.0103, P 0.466, V 0.213, S 0.17, K 0.379, I 0.208, E -0.17
A6: I 0.395, C 0.756, D 1.01, R 0.648, V 0.772, N -0.00395, L 1.45, P 0.153, M 0.372, F 1.43, S 0.223, Y 2.12, T 0.643, G 1.2, Q 1.03, E 1.37, W 0.676, H 0.532
D4: V 0.202, A 0.529, T -0.494, G 0.166, C 0.509, F 0.414, Y 0.616, L 0.0531, R -0.235, P -0.0888, N 0.245, S 0.199, Q -3.53, W 0.262, E 1.26, I 0.179, H -0.661
L10: Q -0.766, F 0.827, N -0.218, D 0.416, S -0.035, K -1.76, R 0.701, P 0.292, Y 1.01, A -0.0675, C -0.25, W -0.175, I 0.238, G -0.12, H 1.75, M 0.438, E -0.413, T 0.145, V -0.151
R12: A -0.914, C -0.448
